Consider nine molecules from patent CN113234145A (THE FIFTH AFFILIATED HOSPITAL SUN YAT SEN UNIV; ZHUHAI …, dated 2021).

Where a chain is given by its changes, count along the chain named.

Assay [1] has as its target T1, SARS-CoV-2病毒N蛋白(全长) (SARS-CoV-2, UniProt P0DTC9 1-419).
The next assay addresses MERS-CoV N蛋白 (MERS-CoV, UniProt K9N4V7 1-411). The assay can be described thus: SPR (Biacore X100), antibody captured as ligand, MERS-CoV N protein as analyte.
For the next assay, the target named is SARS-CoV N蛋白 (SARS-CoV, UniProt P59595 1-422). The assay can be described thus: SPR (Biacore X100), antibody captured as ligand, SARS-CoV N protein as analyte.
The target of assay [2] is T1, SARS-CoV-2病毒N蛋白(全长). The assay can be described thus: SPR (Biacore X100), antibody captured as ligand, N protein as analyte.

B1: nCoV400 (antibody, V domains shown)
VH: EVQLLESGGGLVQPGGSLRLSCAASGFTFSSYAMSWVRQAPGKGLEWVSVIYSGGSSTYYADSVKGRFTISRDNSKNTLYLQMNSLRAEDTAVYYCAKDHLELSAAGSQINYYYYGMDVWGQGTTVTVSS
VL: SYELTQPPSVSVSPGQTARITCSGDALPKQYAYWYQQKPGQAPVLVIYKDSERPSGIPERFSGSSSGTTVTLTISGVQAEDEADYYCQSADSSGTSHWVFGGGTKLTVL
B1 had a 50% effective concentration (EC50) with SARS-CoV-2病毒N蛋白(全长) [1] of 1110 ng/mL.

B2: nCoV396 (antibody, V domains shown)
VH: QVQLVESGGGVVQPGRSLRLSCAASGFTFSSYIMHWVRQAPGKGLEWVAVISYDGSNEAYADSVKGRFTISRDNSKNTLYLQMSSLRAEDTGVYYCARETGDYSSSWYDSWGRGTLVTVSS
VL: QLVLTQSPSASASLGASVKLTCTLSSGHSNYAIAWHQQQPEKGPRYLMKVNSDGSHTKGDGIPDRFSGSSSGAERYLTISSLQSEDEADYYCQTWGTGIQVFGGGTKLTVL
B2: in the assay with SARS-CoV-2病毒N蛋白(全长) [1], the midpoint of the response, the EC50, lay at 3.2 ng/mL. Moreover, the equilibrium dissociation constant (Kd) with MERS-CoV N蛋白 was determined as 7.43 nM; with SARS-CoV N蛋白, 7.44 nM; with SARS-CoV-2病毒N蛋白(全长) [2] it was 1.02 nM.

B3: nCoV433 (antibody, V domains shown)
VH: QVQLVESGGGVVQPGRSLRLSCAASGFTFSNYAMHWVRQAPGKGLEWVTIISYDGTNIYEDSVKGRFTISRDNSKNTLYLQMNSLRAEDTAVYYCAREVFDSSGSWFDYWGQGTLVTVSS
VL: B2 VL with K19R, T23S, S29R, V50L, I62V, L108V
For B3, in the assay with SARS-CoV-2病毒N蛋白(全长) [1], a half-maximal effect (EC50) was put at 5.3 ng/mL.

B4: nCoV454 (antibody, V domains shown)
VH: QVQLVESGGGVVQPGGSLRLSCVTSGFTFSNYAMHWVRQAPGKGLEWVAIISYDGSHLYGDSVKGRFTISRDNSKNTLYLEMSSLRNEDTATYYCARETPEVSGSWIDYWGQGALVIVSS
VL: B2 VL with K19N, S25T, S29N, N30S, E41N, V50L, T57D, A73T, I99V
In the assay with SARS-CoV-2病毒N蛋白(全长) [1], B4 showed an EC50 of 5 ng/mL.

B5: nCoV416 (antibody, V domains shown)
VH: QVQLVQSGAVLKRPGASVKLSCKASGYIFTSYHIHWVRQAPGQGLEWLGTINPRGDVTAYAQKFQGRVSLTRDTSTTTVYMELSSLRSEDTAIYYCAREHGDVSSSVFDHWGQGTLVSVSS
VL: B2 VL with V18I, Q37K, P44L, T57N, A73P, T78I, E85D, Y91H, G96A, T97S
The molecule B5 yielded an EC50 with SARS-CoV-2病毒N蛋白(全长) [1] of 3.3 ng/mL.

B6: nCoV402 (antibody, V domains shown)
VH: QVQLVESGGGVVQPGGSLRLSCAASGFTFSRFTMHWVRQAPGKGLEWVAIISFNGSDKLYVDSVKGRFTVSRDSSKEMLYLQMSSLRHEDTAVYYCARETEDYTSSYFDYWGQGTLVTVSS
VL: B2 VL with S29N, E41Q, K42T, Y46F, T57V, S67T, A73T, E74G, G96A, T97S
Molecule B6 showed an EC50 in the assay with SARS-CoV-2病毒N蛋白(全长) [1] of 6.3 ng/mL.

B7: nCoV424 (antibody, V domains shown)
VH: QVQLVQSGAEVKKPGASVKLSCKASGYTFSSYYIHWVRQAPGQGLEWLGIINPGGDITAYAQKFQGRVSLTRDTSTSTVYMQLSSLRYEDTAVYYCAREEGDVSTSVFDNWGQGTLVTVSS
VL: B2 VL with V18I, S29R, N30S, E41G, V50L, T57I, I62V, T78S, Y91H, K107R
Molecule B7 had an EC50 with SARS-CoV-2病毒N蛋白(全长) [1] of 11.8 ng/mL.

B8: nCoV457 (antibody, V domains shown)
VH: QVQLVESGGGVVQPGRSLRLSCVASGFTFSRYIIHWVRQAPGKGLEWVAVISYDGTAALYADTVKGRFTISRDNSKNTLYLQMNSLRADDTAVYYCARETGEMSTSYFEYWGQGTLVTVSS
VL: B2 VL with G27R, S29N, Y46F, E85D, I99N, L108V
With B8, in the assay with SARS-CoV-2病毒N蛋白(全长) [1], the half-maximal effective concentration (EC50) stood at 2.6 ng/mL.

B9: nCoV425 (antibody, V domains shown)
VH: QVQLVESGGGVVQPGRSLRLSCAASGFTFSNYAMHWVRQPPGKGLEWVAIISYEGRTEYADSMKGRFTISRDNSKSAVYLQMNSLRPEDTAVYYCAREVFDISGSWFDYWGQGTLVTVSS
VL: B2 VL with G27R, V50L, Q83H, L108V, L111V
In the assay with SARS-CoV-2病毒N蛋白(全长) [1], B9 registered an EC50 of 5.2 ng/mL.
